Reference: patent US20220204585A1 (RUSH UNIVERSITY MEDICAL CENTER, published 2022)

T1: CD11b A-domain CD11bA-D242A/F275S/F302G, construct BZ348014 (human, UniProt P11215 148-337)
T1 construct: the antigen on which the libraries were enriched; also called BZ348014 antigen
T1 chain: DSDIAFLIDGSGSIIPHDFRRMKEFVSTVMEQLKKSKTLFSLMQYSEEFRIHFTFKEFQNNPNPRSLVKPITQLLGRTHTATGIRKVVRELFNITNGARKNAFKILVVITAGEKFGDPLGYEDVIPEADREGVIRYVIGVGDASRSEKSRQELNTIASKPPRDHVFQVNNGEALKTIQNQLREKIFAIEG

T2: CD11b A-domain CD11bA-D140A/F275S/F302G, construct BZ348010 (human, UniProt P11215 148-337)
T2 chain: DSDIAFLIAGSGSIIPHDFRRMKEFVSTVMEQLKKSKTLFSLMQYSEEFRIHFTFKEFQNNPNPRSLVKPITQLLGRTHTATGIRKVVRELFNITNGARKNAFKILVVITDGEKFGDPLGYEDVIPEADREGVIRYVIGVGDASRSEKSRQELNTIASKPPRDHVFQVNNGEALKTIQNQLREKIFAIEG

T3: CD11b A-domain CD11bA-F275S/F302G, construct BZ348013 (human, UniProt P11215 148-337)
T3 chain: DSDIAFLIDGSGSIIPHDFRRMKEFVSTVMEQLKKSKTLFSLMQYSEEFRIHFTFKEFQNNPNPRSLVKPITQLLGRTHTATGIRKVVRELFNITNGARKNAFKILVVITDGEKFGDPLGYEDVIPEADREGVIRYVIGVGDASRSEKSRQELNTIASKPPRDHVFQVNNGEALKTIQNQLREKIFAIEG

T4: CD11b A-domain CD11bA-D242A, construct BZ348011 (human, UniProt P11215 148-337)
T4 construct: MIDAS residue D242 replaced with alanine (no MIDAS metal)
T4 chain: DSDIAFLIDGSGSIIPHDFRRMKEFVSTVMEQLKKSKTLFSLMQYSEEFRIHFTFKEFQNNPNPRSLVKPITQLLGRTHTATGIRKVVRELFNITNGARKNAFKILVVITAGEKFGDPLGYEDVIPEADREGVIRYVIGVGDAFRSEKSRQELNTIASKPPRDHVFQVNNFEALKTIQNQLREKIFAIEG

T5: CD11b A-domain CD11bA-D140A, construct BZ348008 (human, UniProt P11215 148-337)
T5 construct: MIDAS residue D140 replaced with alanine (no MIDAS metal)
T5 chain: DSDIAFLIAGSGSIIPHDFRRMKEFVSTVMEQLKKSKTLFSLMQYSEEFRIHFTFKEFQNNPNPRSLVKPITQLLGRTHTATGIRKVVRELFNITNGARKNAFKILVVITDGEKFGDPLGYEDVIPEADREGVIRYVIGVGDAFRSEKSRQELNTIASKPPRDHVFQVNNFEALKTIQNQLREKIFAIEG


Assays:
[1] = target: T1, CD11b A-domain …; experiment: phage ELISA, phage diluted 1:5 on coated antigen (~5 ug/ml), anti-M13-HRP
Method: (§1) After 2 rounds of enrichment against the primary target, positive binders were identified by phage ELISA and analyzed by restriction mapping & sequencing for identification of unique clones. Small scale phage growths were diluted 1:5 in TBS+casein. Nunc Maxi-Sorp strip wells were coated at ˜5 ug/ml of each test protein overnight at 4° C. and blocked with TBS+casein. The diluted phage were applied and allowed to bind for 1 hour with shaking. The wells were washed 4 times with TBS+0.05% Tween20 and twice with TBS. Bound phage were detected by incubation for 1 hour with anti-M13-HRP and after washing as above, developed with TMB. Absorbance at 450 nm was read after acidification of the wells.

[2] = target: T2, CD11b A-domain …; experiment: counterscreen phage ELISA on coated antigen
Method: as §1

[3] = target: T3, CD11b A-domain CD11bA-F275S/F302G, …; experiment: counterscreen phage ELISA on coated antigen
Method: as §1

[4] = target: T4, CD11b A-domain CD11bA-D242A, construct …; experiment: counterscreen phage ELISA on coated antigen
Method: as §1

[5] = target: T1, CD11b A-domain …; experiment: counterscreen phage ELISA on coated antigen
Method: as §1

[6] = target: T5, CD11b A-domain CD11bA-D140A, construct …; experiment: counterscreen phage ELISA on coated antigen
Method: as §1

[7] = target: T6, CD11b A-domain CD11bA WT (WT residues 132-321), construct BZ348007 (human, UniProt P11215 148-337); experiment: counterscreen phage ELISA on coated antigen
T6 construct: Residues numbered on mature CD11b (signal peptide of 16 residues removed); also called His-TEV-CD11b
Method: as §1

[8] = target: T2, CD11b A-domain …; experiment: phage ELISA dilution series, phage diluted 1:16
[9] = target: T3, CD11b A-domain CD11bA-F275S/F302G, …; experiment: phage ELISA dilution series, phage diluted 1:16
[10] = target: T4, CD11b A-domain CD11bA-D242A, construct …; experiment: phage ELISA dilution series, phage diluted 1:16
[11] = target: T1, CD11b A-domain …; experiment: phage ELISA dilution series, phage diluted 1:16
[12] = target: T5, CD11b A-domain CD11bA-D140A, construct …; experiment: phage ELISA dilution series, phage diluted 1:16
[13] = target: T6, CD11b A-domain CD11bA WT (WT residues …); experiment: phage ELISA dilution series, phage diluted 1:16
[14] = target: T2, CD11b A-domain …; experiment: phage ELISA dilution series, phage diluted 1:50
[15] = target: T3, CD11b A-domain CD11bA-F275S/F302G, …; experiment: phage ELISA dilution series, phage diluted 1:50
[16] = target: T4, CD11b A-domain CD11bA-D242A, construct …; experiment: phage ELISA dilution series, phage diluted 1:50
[17] = target: T1, CD11b A-domain …; experiment: phage ELISA dilution series, phage diluted 1:50
[18] = target: T5, CD11b A-domain CD11bA-D140A, construct …; experiment: phage ELISA dilution series, phage diluted 1:50
[19] = target: T6, CD11b A-domain CD11bA WT (WT residues …); experiment: phage ELISA dilution series, phage diluted 1:50
[20] = target: T2, CD11b A-domain …; experiment: phage ELISA dilution series, phage diluted 1:5
[21] = target: T3, CD11b A-domain CD11bA-F275S/F302G, …; experiment: phage ELISA dilution series, phage diluted 1:5
[22] = target: T4, CD11b A-domain CD11bA-D242A, construct …; experiment: phage ELISA dilution series, phage diluted 1:5
[23] = target: T1, CD11b A-domain …; experiment: phage ELISA dilution series, phage diluted 1:5
[24] = target: T5, CD11b A-domain CD11bA-D140A, construct …; experiment: phage ELISA dilution series, phage diluted 1:5
[25] = target: T6, CD11b A-domain CD11bA WT (WT residues …); experiment: phage ELISA dilution series, phage diluted 1:5

Binder	Absorbance at 450 nM [1]	Absorbance at 450 nM [2]	Absorbance at 450 nM [3]	Absorbance at 450 nM [4]	Absorbance at 450 nM [5]	Absorbance at 450 nM [6]	Absorbance at 450 nM [7]	also measured
Clone 6 149-014-6 (VL-linker-VH) (scFv, From the naive human scFv phage display library) scFv: QSVLTQPPSASGTPGQRVTISCSGSSSNIGSNYVSWYQQLPGTAPKLLIYDNNKRPSGIPDRFSGSKSGTSATLGITGLQTGDEADYYCGTWDSSLSALYVFGAGTKLTVLGEGKSSGSGSESKASQVQLQESGPGLVKPSETLSLTCSVSGGSTSSYYWSWIRQPPGKGLEWIGYISNSGSTNYNPSLKSRVTMSIDTSNNQFSLKLSSVTAADTAVYYCASHLGATWRWGQGTLVTVSS	0.641	1.51	1.3	0.169	1.25	0.058	0.567	–
Clone 13 149-014-13 VH only (other) VH: EVQLLESGGGLVQPGGSLRLSCAASGFTFSSDLMSWVRQAPGKGLEWVSAISGSGGSTYYADSVKGRFTISRDNSKNTLYLQMNSLRAEDTAVYYCAKNEVIFDYWGQGTLVTVSSASTKGLSMFDYWGQGTKVEIK	0.499	0.495	0.954	0.183	0.866	0.228	0.169	–
Clone 14 149-014-14 (VK-Linker-VH) (scFv, From the naive human scFv phage display library) scFv: DVVMTQSPLSLPATLGQPASISCRSSQSLVYTDGNTYLNWFQQRPGQSPRRLIYKVSNRDSGVPDRFSGSGSGTHFTLKISRVEAEDVGVYYCMQGTHWPPTFGQGTKVEIKEGKSSGSGSESKASEVQLVQSGAEVKKPGASVKVSCKASGGTFSSYAISWVRQAPGQGLEWMGGIIPIFGTANYAQKFQGRVTITADESTSTAYMELSSLRSEDTAVYYCASSGVDYWGQGTLVTVSS	0.598	0.659	0.953	0.259	1.06	0.38	0.22	Absorbance at 450 nM [8]: 0.038; Absorbance at 450 nM [9]: 0.278; Absorbance at 450 nM [10]: 0.054; Absorbance at 450 nM [11]: 0.356; Absorbance at 450 nM [12]: 0.08; Absorbance at 450 nM [13]: 0.101; Absorbance at 450 nM [14]: 0.04; Absorbance at 450 nM [15]: 0.078; Absorbance at 450 nM [16]: 0.045; Absorbance at 450 nM [17]: 0.059; Absorbance at 450 nM [18]: 0.047; Absorbance at 450 nM [19]: 0.06; Absorbance at 450 nM [20]: 0.046; Absorbance at 450 nM [21]: 1.38; Absorbance at 450 nM [22]: 0.2; Absorbance at 450 nM [23]: 0.782; Absorbance at 450 nM [24]: 0.372; Absorbance at 450 nM [25]: 0.557
Clone 5 149-014-5 (VL-Linker-VH) (scFv, From the naive human scFv phage display library) scFv: SSELTQDPAVSVALGQTVRITCQGDSLRSYYASWYQQKPGQAPVLVIYGKNNRPSGIPDRFSGSTSGNFASLTITGAQAEDGADYYCHSRDSSGNHLVFGGGTKLTVLGEGKSSGSGSESKASEVQLVQSGAEVKKPGESLKISCKGSGYSFTSYWIGWVRQMPGKGLEWMGIIYPGDSDTRYSPSFQGQVTISADKSISTAYLQWSSLKASDTAMYYCARRARGAFDIWGQGTLVTVSS	1.37	1.74	1.65	1.77	1.69	1.85	1.78	–
